Assay results: patent US20230287120A1 (ALLOGENE THERAPEUTICS, published 2023)
Each block holds one binder with its values, some of them ahead of it.

Assays:
[1] = target: T1, Flag tagged recombinant DLL3 (Adipogen) (Homo sapiens (Human), UniProt Q9NYJ7 27-492); assay: flow cytometry, primary T cells with the CAR, Flag tagged recombinant DLL3, PE anti-Flag
T1 construct: Bought reagent; also called Flag-DLL3
T1 sequence: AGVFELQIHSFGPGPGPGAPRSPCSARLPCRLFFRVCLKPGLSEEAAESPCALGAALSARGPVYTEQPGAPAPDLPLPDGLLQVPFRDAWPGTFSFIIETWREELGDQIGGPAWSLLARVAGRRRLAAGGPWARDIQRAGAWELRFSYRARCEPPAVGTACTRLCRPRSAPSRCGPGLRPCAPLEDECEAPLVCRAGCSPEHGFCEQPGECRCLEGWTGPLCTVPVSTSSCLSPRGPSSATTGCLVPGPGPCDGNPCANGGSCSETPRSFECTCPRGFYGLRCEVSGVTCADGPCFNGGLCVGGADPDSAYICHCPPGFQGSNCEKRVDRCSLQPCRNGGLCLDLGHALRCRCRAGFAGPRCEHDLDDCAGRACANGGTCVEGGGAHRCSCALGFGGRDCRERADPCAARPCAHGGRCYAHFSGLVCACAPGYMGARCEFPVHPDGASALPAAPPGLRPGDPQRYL

[2] = target: T2, human DLL3 on cells (endogenous on SHP-77, DMS 273, DMS 454; full length human DLL3 by lentivirus on HEK-293T) (human, UniProt Q9NYJ7 27-618); assay: flow cytometry on DMS 273, DMS 454 and SHP-77 cells, 2 ug/ml antibody, PE anti-mouse IgG
T2 construct: whole, on cells
T2 sequence (looked up): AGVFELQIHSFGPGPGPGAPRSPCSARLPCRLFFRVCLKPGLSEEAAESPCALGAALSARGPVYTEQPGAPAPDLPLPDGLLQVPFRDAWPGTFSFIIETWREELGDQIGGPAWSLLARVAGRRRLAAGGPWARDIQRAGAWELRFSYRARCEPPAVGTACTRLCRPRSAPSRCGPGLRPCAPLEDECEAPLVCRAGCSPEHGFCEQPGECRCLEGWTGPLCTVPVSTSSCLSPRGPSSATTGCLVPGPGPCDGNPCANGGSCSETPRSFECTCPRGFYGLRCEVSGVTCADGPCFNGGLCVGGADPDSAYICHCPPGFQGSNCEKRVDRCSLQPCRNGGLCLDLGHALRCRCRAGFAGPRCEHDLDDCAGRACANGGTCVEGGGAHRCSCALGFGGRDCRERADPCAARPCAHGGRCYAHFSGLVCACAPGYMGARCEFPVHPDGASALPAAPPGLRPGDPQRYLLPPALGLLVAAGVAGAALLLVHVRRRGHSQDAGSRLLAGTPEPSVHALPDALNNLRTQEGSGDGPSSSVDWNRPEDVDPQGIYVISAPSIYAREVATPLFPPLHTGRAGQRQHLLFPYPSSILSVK

[3] = target: T3, full length human DLL3 with N-terminal HA tag, expressed on CHO cells (human, UniProt Q9NYJ7 27-618); assay: flow cytometry on CHO cells with full length and truncated human DLL3; column Binds to DLL3 Domain
T3 construct: also called Human DLL3 complete ECD
T3 sequence: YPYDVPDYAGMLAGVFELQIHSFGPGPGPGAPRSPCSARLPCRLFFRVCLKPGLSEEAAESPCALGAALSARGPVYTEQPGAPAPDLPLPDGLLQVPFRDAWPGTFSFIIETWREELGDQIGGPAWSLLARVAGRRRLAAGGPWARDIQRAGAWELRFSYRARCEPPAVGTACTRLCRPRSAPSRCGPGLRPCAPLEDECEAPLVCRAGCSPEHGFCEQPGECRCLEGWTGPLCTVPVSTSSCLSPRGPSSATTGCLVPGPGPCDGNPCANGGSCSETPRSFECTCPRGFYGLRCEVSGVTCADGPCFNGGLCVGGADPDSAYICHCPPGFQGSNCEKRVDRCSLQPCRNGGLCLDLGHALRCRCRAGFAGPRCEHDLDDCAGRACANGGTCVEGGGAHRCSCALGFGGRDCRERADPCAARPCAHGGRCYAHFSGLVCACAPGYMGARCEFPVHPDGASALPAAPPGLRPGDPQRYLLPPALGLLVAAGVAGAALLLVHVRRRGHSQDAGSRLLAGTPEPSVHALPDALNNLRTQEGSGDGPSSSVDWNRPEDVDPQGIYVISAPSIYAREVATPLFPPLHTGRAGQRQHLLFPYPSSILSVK

B1: 10G1-K R2S (other)
CAR: GGGGSCPYSNPSLCGGGGSCPYSNPSLCGGGGSEVQLLESGGGLVQPGGSLRLSCAASGFTFSSYAMNWVRQAPGKGLEWVSTISGSGGSTYYADSVKGRFTISRDNSKNTLYLQMNSLRAEDTAVFYCAIDPEYYDILTGGDYWGQGTLVTVSSGGGGSGGGGSGGGGGSGGGGSDIQMTQSPSAMSASVGDRVTITCRASQGISNYLAWFQQKPGKVPKRLIYAASSLQSGVPSRFSGSGSGTEFTLTISSLQPEDFATYFCLQHDSFPLTFGGGTKVEIKTTTPAPRPPTPAPTIASQPLSLRPEACRPAAGGAVHTRGLDFACDIYIWAPLAGTCGVLLLSLVITKRGRKKLLYIFKQPFMRPVQTTQEEDGCSCRFPEEEEGGCELRVKFSRSADAPAYQQGQNQLYNELNLGRREEYDVLDKRRGRDPEMGGKPRRKNPQEGLYNELQKDKMAEAYSEIGMKGERRRGKGHDGLYQGLSTATKDTYDALHMQALPPR
notes: member of group m46; also called 10G1-K-R2S anti-DLL3 CAR with safety switch, on primary T cells
Rec-DLL3+ gate, percent of live CD3+ cells [1]: 39.3%

B2: anti-DLL3 antibody 10G1-K (antibody, V domains shown)
VH: EVQLLESGGGLVQPGGSLRLSCAASGFTFSSYAMNWVRQAPGKGLEWVSTISGSGGSTYYADSVKGRFTISRDNSKNTLYLQMNSLRAEDTAVFYCAIDPEYYDILTGGDYWGQGTLVTVSS
VL: DIQMTQSPSAMSASVGDRVTITCRASQGISNYLAWFQQKPGKVPKRLIYAASSLQSGVPSRFSGSGSGTEFTLTISSLQPEDFATYFCLQHDSFPLTFGGGTKVEIK
binding result [2]: binds
binding result [3]: binds

Other lines, results leading:

binding result [2]: binds
binding result [3]: binds
B3: anti-DLL3 antibody 4E6 (antibody, V domains shown)
VH: QVQLQESGPGLVKPSETLSLTCTVSSDSISSYYWSWIRQPPGKGLEWISYIYYSGISNYNPSLKSRVSISVDTSKNQFSLRLSSVTAADTAVYYCARISVAGFFFDNWGQGTLVTVSS
VL: EIMLTQSPDTLSLSPGERATLSCRASQSVSSSYLAWYQQKPGQAPRLLIYGASSRAAGVPDRFSGSGSGTDFTLTISRLAPEDFVVYYCQQYGISPLTFGGGTKVEIK

binding result [2]: binds
B4: 3E4 (antibody, V domains shown)
VH: QVQLQQWGAGLLKPSETLSLTCAVYGGSFSGYYWSWIRQPPGKGLEWIGEIIHSGSSNYNPSLKSRVSISVDTSKNQFSLKLSSVTAADTAVYYCSRGEYGSGSRFDYWGQGTLVTVSS
VL: AIQMTQSPSSLSASVGDRVAITCRASQGIRDDLGWYQQKPGKAPKLLIYAASSLQSGVPSRFSGSRSDTDFTLTISSLQPEDFATYYCLQDYDYPLTFGGGTKVEIK
notes: also called anti-DLL3 antibody 3E4 (purified, mouse IgG2A backbone)
